Substrate: C[C@]12CC[C@@H]3c4ccc(O)cc4CC[C@H]3[C@@H]1CC[C@@H]2O[C@@H]1O[C@H](C(=O)O)[C@@H](O)[C@H](O)[C@H]1O
Conditions: HEK293; Membrane vesicle
Description: TP_TRANSPORTER: uptake in membrane vesicles from MRP3-expressing HEK cells

B1: Multidrug resistance associated protein (Homo sapiens), Q96QA9 (protein)
chain: MDALCGSGELGSKFWDSNLSVHTENPDLTPCFQNSLLAWVPCIYLWVALPCYLLYLRHHCRGYIILSHLSKLKMVLGVLLWCVSWADLFYSFHGLVHGRAPAPVFFVTPLVVGVTMLLATLLIQYERLQGVQSSGVLIIFWFLCVVCAIVPFRSKILLAKAEGEISDPFRFTTFYIHFALVLSALILACFREKPPFFSAKNVDPNPYPETSAGFLSRLFFWWFTKMAIYGYRHPLEEKDLWSLKEEDRSQMVVQQLLEAWRKQEKQTARHKASAAPGKNASGEDEVLLGARPRPRKPSFLKALLATFGSSFLISACFKLIQDLLSFINPQLLSILIRFISNPMAPSWWGFLVAGLMFLCSMMQSLILQHYYHYIFVTGVKFRTGIMGVIYRKALVITNSVKRASTVGEIVNLMSVDAQRFMDLAPFLNLLWSAPLQIILAIYFLWQNLGPSVLAGVAFMVLLIPLNGAVAVKMRAFQVKQMKLKDSRIKLMSEILNGIKVLKLYAWEPSFLKQVEGIRQGELQLLRTAAYLHTTTTFTWMCSPFLVTLITLWVYVYVDPNNVLDAEKAFVSVSLFNILRLPLNMLPQLISNLTQASVSLKRIQQFLSQEELDPQSVERKTISPGYAITIHSGTFTWAQDLPPTLHSLDIQVPKGALVAVVGPVGCGKSSLVSALLGEMEKLEGKVHMKGSVAYVPQQAWIQNCTLQENVLFGKALNPKRYQQTLEACALLADLEMLPGGDQTEIGEKGINLSGGQRQRVSLARAVYSDADIFLLDDPLSAVDSHVAKHIFDHVIGPEGVLAGKTRVLVTHGISFLPQTDFIIVLADGQVSEMGPYPALLQRNGSFANFLCNYAPDEDQGHLEDSWTALEGAEDKEALLIEDTLSNHTDLTDNDPVTYVVQKQFMRQLSALSSDGEGQGRPVPRRHLGPSEKVQVTEAKADGALTQEEKAAIGTVELSVFWDYAKAVGLCTTLAICLLYVGQSAAAIGANVWLSAWTNDAMADSRQNNTSLRLGVYAALGILQGFLVMLAAMAMAAGGIQAARVLHQALLHNKIRSPQSFFDTTPSGRILNCFSKDIYVVDEVLAPVILMLLNSFFNAISTLVVIMASTPLFTVVILPLAVLYTLVQRFYAATSRQLKRLESVSRSPIYSHFSETVTGASVIRAYNRSRDFEIISDTKVDANQRSCYPYIISNRWLSIGVEFVGNCVVLFAALFAVIGRSSLNPGLVGLSVSYSLQVTFALNWMIRMMSDLESNIVAVERVKEYSKTETEAPWVVEGSRPPEGWPPRGEVEFRNYSVRYRPGLDLVLRDLSLHVHGGEKVGIVGRTGAGKSSMTLCLFRILEAAKGEIRIDGLNVADIGDPILFSGTLRMNLDPFGSYSEEDIWWALELSHLHTFVSSQPAGLDFQCSEGGENLSVGQRQLVCLARALLRKSRILVLDEATAAIDLETDNLIQATIRTQFDTCTVLTIAHRLNTIMDYTRVLVLDKGVVAEFDSPANLIAARGIFYGMARDAGLA
Question: B1 was tested. Which Km did it give?
Answer: The Km was 29 µM.

Source: ChEMBL document CHEMBL2073843, “Characterization of the role of polar amino acid residues within predicted transmembrane helix 17 in determining the substrate specificity of multidrug resistance protein 3” (Biochemistry, 2003)
